Results on 10 molecules are retold here after US20210340238A1, “TGFß1 INHIBITORS AND USE THEREOF” (Scholar Rock, Inc., priority 2018, published 2021).

What all share (design): species or system human
In experiment [1] the target is Matrix-associated proTGFβ1. As to the kind of experiment: Octet binding, ECM average of hLTBP1 and hLTBP3 complexes. The note with it: average KD of (B) and (C), read-out: (D) ECM AVRG. The text has this: (§1) Column (A) of the table provides monoclonal antibodies with discrete amino acid sequences. […] Columns (B), (C), (E) and (F) provide affinities of each of the listed antibodies, measured in KD, towards the antigen complex as indicated, respectively. […] Average KD values calculated from (B) and (C) are shown in the corresponding column (D), which collectively represents affinities of the antibodies to ECM- or matrix-associated proTGFβ1 complexes. Similarly, Average KD values calculated from (E) and (F) are shown in the corresponding column (G), which collectively represents affinities of the antibodies to cell-surface or cell-associated proTGF complexes. Finally, relative ratios between the average KD values from columns (D) and (G) are expressed as fold bias” in column (H). Thus, the greater the numerical of column (H) is, the greater bias exists for the particular antibody, when comparing binding preferences of the antibody for matrix-associated complexes to cell-surface complexes. This is one way of quantitatively representing and comparing inherent bias of antibodies to their target complexes. Such analyses may be useful in guiding the selection process for a candidate antibody for particular therapeutic use.

The test system of experiment [2] is Cell-associated proTGFβ1. Kind of experiment: Octet binding, cell average of hGARP and hLRRC33 complexes. Conditions: average KD of (E) and (F), read-out: (G) Cell AVRG.
Description: as §1
A general note: BLI is a label-free optical method that tracks binding on a fibre tip over time.

Experiment [3] has as its system Matrix-associated proTGFβ1 vs Cell-associated proTGFβ1. As to the kind of experiment: Octet binding, matrix vs cell bias (G/D). The note with it: ratio of cell average KD to ECM average KD.
Description: as §1

Experiment [4] addresses Matrix-associated proTGFβ1. As to the kind of experiment: MSD-SET binding, ECM average of hLTBP1 and hLTBP3 complexes. Conditions: average KD of (B) and (C), read-out: (D) ECM AVRG. The text has this: (§2) Column (A) of the table provides monoclonal antibodies with discrete amino acid sequences. […] Columns (B), (C), (E) and (F) provide affinities of each of the listed antibodies, measured in KD, towards the antigen complex as indicated, respectively. […] Similarly, Average KD values calculated from (E) and (F) are shown in the corresponding column (G), which collectively represents affinities of the antibodies to cell-surface or cell-associated proTGF complexes. Finally, relative ratios between the average KD values from columns (D) and (G) are expressed as fold bias” in column (H). Thus, the greater the numerical of column (H) is, the greater bias exists for the particular antibody, when comparing binding preferences of the antibody for matrix-associated complexes to cell-surface complexes. This is one way of quantitatively representing and comparing inherent bias of antibodies to their target complexes. Such analyses may be useful in guiding the selection process for a candidate antibody for particular therapeutic use. Select antibodies of the present disclosure, as measured by MSD-SET, show context-bias (i.e., greater than five-fold bias) or unbias (i.e., less than 5-fold bias) toward matrix-associated complexes over cell-associated complexes. […] Without being bound by a particular theory, the differences in the kinetics of the assays and/or differences in the nature of recombinant proteins may account for the noticeable differences seen in Ab19 binding to hGARP complexes observed in the above Octet assay (see Table 6) compared to the below MSD-SET assay (see Table 7 below). For example, the Octet assay measures kinetic on and off rates, while the MSD-SET assay measures binding at equilibrium. In addition, the recombinant antibodies used in the Octet assay were expressed as IgG1 antibodies in yeast, while the antibodies used in the MSD assay were expressed as IgG4 antibodies in mammalian cells.

Experiment [5] concerns Cell-associated proTGFβ1. Kind of experiment: MSD-SET binding, cell average of hGARP and hLRRC33 complexes. The note with it: average KD of (E) and (F), read-out: (G) Cell AVRG.
Description: as §2

Experiment [6] deals with Matrix-associated proTGFβ1 vs Cell-associated proTGFβ1. Kind of experiment: MSD-SET binding, matrix vs cell bias (G/D). The note with it: ratio of cell average KD to ECM average KD.
Description: as §2

Numbering of substitutions follows the chain as printed. Several values for one entry are separate records, joined by “and”; a condition that tells them apart may be missing. Identical values can stand only once.

B1: Ab19: monoclonal antibody binding proTGFβ1 complexes; VH SEQ ID NO: 234, VL SEQ ID NO: 15 (antibody, V domains shown)
VH: QVQLVESGGGVVQPGRSLRLSCAASGFTFSSFAMTWVRQAPGKGLEWVSAISGSGAATYFADSVKGRFTISRDNSKNTLYLQMNSLRAEDTAVYYCARVSSGHWDFDEWGQGTLVTVSS
VL: DIQLTQSPSSLSASVGDRVTITCRASQSISSYLNWYQQKPGKAPKLLIYAASNLQSGVPSRFSGSGSGTDFTLTISSLQPEDFATYYCQQTYTVPLTFGGGTKVEIK
Turning to B1, the Kd was 0.172 nM in experiment [1], 5.95 nM in experiment [2], 2.83 nM in experiment [4] and 4.75 nM in experiment [5]. For the same molecule, the “(H) G/D (fold bias)” value in experiment [3] is 34.47 fold; in experiment [6], 1.675 fold and 1.68 fold.

B2: Ab16: monoclonal antibody binding proTGFβ1 complexes; VH SEQ ID NO: 228, VL SEQ ID NO: 15 (antibody, V domains shown)
VH: EVQLLESGGGLVQPGGSLRLSCAASGFTFSNYAMSWVRQAPGKGLEWVSAISGSGFTTYYADSVKGRFTISRDNSKNTLYLQMNSLRAEDTAVYYCARVSSGHWDFDYWGQGTLVTVSS
VL: B1 VL
As to B2, the results for the Kd in experiment [1] and in experiment [2] were 0.157 nM and 2.4 nM, respectively. For the same molecule, the “(H) G/D (fold bias)” value in experiment [3] was found to be 15.307 fold.

B3: Ab17: monoclonal antibody binding proTGFβ1 complexes; VH SEQ ID NO: 230, VL SEQ ID NO: 15 (antibody, V domains shown)
VH: B1 VH with Q1E, V5L, R16G, E108Y
VL: B1 VL
For B3, the Kd stood at 0.191 nM in experiment [1] and 4.64 nM in experiment [2]. In experiment [3], the “(H) G/D (fold bias)” value stood at 24.288 fold.

B4: Ab13: monoclonal antibody binding proTGFβ1 complexes; VH SEQ ID NO: 222, VL SEQ ID NO: 223 (antibody, V domains shown)
VH: B2 VH with S30A, N31D, S35T, G53S, S54F, G55A, F56S, T57A, T58I
VL: B1 VL with L4M, N53S, T91V, T93D, V94P
Take B4: the Kd came to 0.263 nM in experiment [1] and 5.7 nM in experiment [2]. Further, the “(H) G/D (fold bias)” value in experiment [3] was 21.71 fold.

B5: Ab20: monoclonal antibody binding proTGFβ1 complexes; VH SEQ ID NO: 236, VL SEQ ID NO: 15 (antibody, V domains shown)
VH: B2 VH with N31A, S35T, F56G, T57V, F106Y
VL: B1 VL
Consider B5, for which the Kd in experiment [1] came to 0.162 nM; in experiment [2], 0.715 nM; in experiment [4] it was 0.2 nM. Besides, the “(H) G/D (fold bias)” value in experiment [6] amounted to 6.75 fold.

B6: Ab14: monoclonal antibody binding proTGFβ1 complexes; VH SEQ ID NO: 224, VL SEQ ID NO: 223 (antibody, V domains shown)
VH: B2 VH with N31A, S35T, S54T, F56G, T57S
VL: B1 VL with L4M, N53S, T91V, T93D, V94P
Take B6: the Kd in experiment [1] came to 0.341 nM; in experiment [2], 5.92 nM. Moreover, the “(H) G/D (fold bias)” value in experiment [3] stood at 17.36 fold.

B7: Ab12: monoclonal antibody binding proTGFβ1 complexes; VH SEQ ID NO: 212, VL SEQ ID NO: 15 (antibody, V domains shown)
VH: B2 VH with E1Q, L5V, L11V, G16R, N31D, S35V
VL: B1 VL
On to B7, for which the Kd was 0.17 nM in experiment [1], 3.89 nM in experiment [2], 0.72 nM in experiment [4] and 2.45 nM in experiment [5]. The results for the “(H) G/D (fold bias)” value in experiment [3] and in experiment [6] were 22.897 fold and 3.40 fold, respectively.

B8: Ab18: monoclonal antibody binding proTGFβ1 complexes; VH SEQ ID NO: 232, VL SEQ ID NO: 15 (antibody, V domains shown)
VH: B1 VH with S31D, F32Y, T35V, R98T, E108Y
VL: B1 VL
Turning to B8, the Kd was 0.284 nM in experiment [1] and 6.26 nM in experiment [2]. For the same molecule, in experiment [3], the “(H) G/D (fold bias)” value was found to be 22.00 fold.

B9: Ab11: monoclonal antibody binding proTGFβ1 complexes; VH SEQ ID NO: 216, VL SEQ ID NO: 15 (antibody, V domains shown)
VH: B2 VH with S30R, A50S, F56G, T57A
VL: B1 VL
For the molecule B9, the Kd in experiment [1] was 0.161 nM; in experiment [2] it was 0.699 nM; in experiment [5], 4.65 nM. Further, the “(H) G/D (fold bias)” value in experiment [6] was 3.87 fold.

B10: Ab15: monoclonal antibody binding proTGFβ1 complexes; VH SEQ ID NO: 226, VL SEQ ID NO: 15 (antibody, V domains shown)
VH: B2 VH with L5V, L11V, G16R, N31D, S35V
VL: B1 VL
With B10, the Kd in experiment [1] stood at 0.159 nM; in experiment [2], 3.86 nM. Also, the “(H) G/D (fold bias)” value in experiment [3] is reported as 24.25 fold.
